What was measured:
[1] = target: human factor XIIa (human) (UniProt P00748)
[2] = target: human factor XIa (human) (UniProt P03951)
[3] = target: human plasma Kallikrein (human) (UniProt P03952)
[4] = target: human thrombin (FIIa) (human) (UniProt P00734)
[5] = target: human thrombin (FIIa) (human) (UniProt P00734); remark: listed apart in the source
[6] = target: human thrombin (FIIa) (human) (UniProt P00734); remark: listed apart in the source
[7] = target: human thrombin (FIIa) (human) (UniProt P00734); remark: listed apart in the source

Sequence of UniProt P03951 (P03951 19-387, chain 1 of 2): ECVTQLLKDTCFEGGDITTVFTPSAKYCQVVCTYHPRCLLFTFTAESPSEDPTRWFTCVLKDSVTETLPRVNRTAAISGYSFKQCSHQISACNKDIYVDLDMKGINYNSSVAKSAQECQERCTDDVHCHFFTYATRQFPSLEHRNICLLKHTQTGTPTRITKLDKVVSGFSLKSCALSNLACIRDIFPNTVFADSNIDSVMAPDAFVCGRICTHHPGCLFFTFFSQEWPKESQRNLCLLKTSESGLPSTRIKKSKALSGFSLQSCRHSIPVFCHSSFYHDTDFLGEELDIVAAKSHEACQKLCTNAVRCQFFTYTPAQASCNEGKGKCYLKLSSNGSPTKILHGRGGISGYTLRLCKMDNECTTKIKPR
Sequence of UniProt P03951 (P03951 388-625, chain 2 of 2): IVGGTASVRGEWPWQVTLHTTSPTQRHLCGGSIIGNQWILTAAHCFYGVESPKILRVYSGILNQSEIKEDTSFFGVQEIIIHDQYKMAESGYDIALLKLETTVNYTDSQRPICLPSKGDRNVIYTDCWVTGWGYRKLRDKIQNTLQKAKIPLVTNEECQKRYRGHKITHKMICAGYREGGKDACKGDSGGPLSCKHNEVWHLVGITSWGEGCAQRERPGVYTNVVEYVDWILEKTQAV
Sequence of UniProt P00748 (P00748 20-372, chain 1 of 2): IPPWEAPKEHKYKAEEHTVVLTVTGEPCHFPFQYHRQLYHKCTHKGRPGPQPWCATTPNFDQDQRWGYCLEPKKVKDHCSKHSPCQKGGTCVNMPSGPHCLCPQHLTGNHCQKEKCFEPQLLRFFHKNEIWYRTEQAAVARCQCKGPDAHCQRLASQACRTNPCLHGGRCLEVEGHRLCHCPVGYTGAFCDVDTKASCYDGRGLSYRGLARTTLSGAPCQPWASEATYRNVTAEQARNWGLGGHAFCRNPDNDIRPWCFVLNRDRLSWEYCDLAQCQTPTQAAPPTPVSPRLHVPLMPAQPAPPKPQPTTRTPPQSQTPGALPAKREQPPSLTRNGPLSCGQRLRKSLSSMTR
Sequence of UniProt P00748 (P00748 373-615, chain 2 of 2): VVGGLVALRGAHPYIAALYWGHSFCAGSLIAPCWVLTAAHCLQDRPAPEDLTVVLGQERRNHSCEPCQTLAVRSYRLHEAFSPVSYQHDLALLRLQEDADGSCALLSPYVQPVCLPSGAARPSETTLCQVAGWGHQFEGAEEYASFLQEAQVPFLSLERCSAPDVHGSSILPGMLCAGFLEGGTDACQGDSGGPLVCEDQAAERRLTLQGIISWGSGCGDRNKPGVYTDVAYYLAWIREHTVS
Sequence of UniProt P03952 (P03952 20-390, chain 1 of 2): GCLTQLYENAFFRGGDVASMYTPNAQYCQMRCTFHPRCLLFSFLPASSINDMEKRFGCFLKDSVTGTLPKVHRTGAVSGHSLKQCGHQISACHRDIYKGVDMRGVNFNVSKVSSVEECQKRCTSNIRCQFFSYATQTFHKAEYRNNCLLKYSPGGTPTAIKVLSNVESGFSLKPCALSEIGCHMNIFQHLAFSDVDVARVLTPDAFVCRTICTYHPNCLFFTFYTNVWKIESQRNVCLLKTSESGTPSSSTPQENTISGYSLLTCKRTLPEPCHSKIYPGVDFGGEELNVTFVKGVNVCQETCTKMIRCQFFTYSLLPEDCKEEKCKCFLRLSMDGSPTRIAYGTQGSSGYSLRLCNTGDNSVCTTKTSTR
Sequence of UniProt P03952 (P03952 391-638, chain 2 of 2): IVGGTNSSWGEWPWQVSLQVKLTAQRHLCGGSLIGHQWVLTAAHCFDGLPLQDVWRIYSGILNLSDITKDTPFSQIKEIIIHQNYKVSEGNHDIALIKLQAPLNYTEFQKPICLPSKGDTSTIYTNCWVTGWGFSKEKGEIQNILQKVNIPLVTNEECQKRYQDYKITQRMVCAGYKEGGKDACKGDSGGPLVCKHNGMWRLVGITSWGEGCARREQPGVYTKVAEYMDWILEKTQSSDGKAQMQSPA

Substance: recombinant Dromaserpin (rDromaserpin) (natural protein)
- inhibition of FXIIa (15 nM) activity on S-2302 with 1 µM and 5 µM rDromaserpin (no effect at 1 µM, ~29% at 5 µM) [1]: 29%
- inhibition of FXIa (3.7 nM) activity (BIOPHEN kit) with 1 µM and 5 µM rDromaserpin (no effect at 1 µM, ~48% at 5 µM) [2]: 48%
- decrease of Kallikrein (10 nM) catalytic activity on S-2302 with 1 µM and 5 µM rDromaserpin (~30% and ~76%) [3]: 76%
- decrease of thrombin (2U) catalytic activity on S-2238 with 1 µM and 5 µM rDromaserpin (87% and 89%), 15 min pre-incubation at 37 °C [4]: 89%
- residual activity of thrombin (2U) on the chromogenic substrate S-2238 with rDromaserpin from 0.02 to 1 µM; IC50 [5]: 160 nM
- residual activity of thrombin (2U) with 0.2 µM rDromaserpin and heparin from 0 to 7.2 µM (48.11% without heparin, 12.5% at 2.4 µM heparin, less acceleration from 5.6 µM) [6]: 48.1%
- reduction of thrombin-induced aggregation of washed human platelets; 10 µM rDromaserpin pre-incubated 10 min at 37 °C with thrombin [7]: 88.2%
